Earlier results as cited in article PMC7462287.

Biological target: Protective antigen heptamer (Bacillus anthracis) (UniProt P13423)
Assay: SPR

Edema factor, sequence (P40136 34-800): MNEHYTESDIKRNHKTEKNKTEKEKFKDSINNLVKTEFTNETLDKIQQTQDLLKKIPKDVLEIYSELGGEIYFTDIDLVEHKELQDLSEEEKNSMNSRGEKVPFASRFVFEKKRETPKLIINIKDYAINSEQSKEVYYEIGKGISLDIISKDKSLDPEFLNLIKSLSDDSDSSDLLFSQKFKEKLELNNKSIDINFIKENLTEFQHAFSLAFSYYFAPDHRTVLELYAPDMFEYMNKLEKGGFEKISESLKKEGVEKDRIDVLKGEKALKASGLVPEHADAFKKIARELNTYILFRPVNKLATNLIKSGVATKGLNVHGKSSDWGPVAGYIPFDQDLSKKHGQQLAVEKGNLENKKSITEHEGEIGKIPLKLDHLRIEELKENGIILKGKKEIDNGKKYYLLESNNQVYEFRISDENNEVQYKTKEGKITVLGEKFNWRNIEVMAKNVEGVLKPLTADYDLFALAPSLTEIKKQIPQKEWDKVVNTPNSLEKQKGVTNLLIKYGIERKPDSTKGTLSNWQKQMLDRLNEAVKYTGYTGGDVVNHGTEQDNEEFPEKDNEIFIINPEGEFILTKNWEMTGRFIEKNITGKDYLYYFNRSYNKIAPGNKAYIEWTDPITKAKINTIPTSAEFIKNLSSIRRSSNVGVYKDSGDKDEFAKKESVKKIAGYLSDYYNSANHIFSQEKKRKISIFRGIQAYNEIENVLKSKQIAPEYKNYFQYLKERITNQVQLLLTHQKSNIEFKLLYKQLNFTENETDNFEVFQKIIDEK
Protective antigen heptamer (Bacillus anthracis), sequence (P13423 197-764): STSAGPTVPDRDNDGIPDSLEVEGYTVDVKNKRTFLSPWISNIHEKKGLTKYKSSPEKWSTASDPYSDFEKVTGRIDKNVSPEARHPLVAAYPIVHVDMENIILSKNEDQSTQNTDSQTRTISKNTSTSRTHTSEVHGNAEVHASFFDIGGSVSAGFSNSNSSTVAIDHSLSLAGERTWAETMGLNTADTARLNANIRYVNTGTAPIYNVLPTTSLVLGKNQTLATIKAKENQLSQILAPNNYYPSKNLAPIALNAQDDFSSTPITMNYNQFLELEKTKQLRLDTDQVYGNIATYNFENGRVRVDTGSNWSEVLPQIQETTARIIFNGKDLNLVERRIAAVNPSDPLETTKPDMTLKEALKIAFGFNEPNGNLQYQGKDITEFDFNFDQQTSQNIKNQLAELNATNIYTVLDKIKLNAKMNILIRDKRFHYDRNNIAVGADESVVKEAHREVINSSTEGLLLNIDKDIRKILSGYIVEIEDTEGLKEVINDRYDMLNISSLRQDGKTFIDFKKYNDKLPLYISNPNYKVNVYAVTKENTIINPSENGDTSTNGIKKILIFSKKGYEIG

Edema factor (from UniProt P40136)
Kd: 1.5 nM
